In patent US20240141042A1 (INNATE PHARMA, published 2024):
Substitutions are numbered along the chain they refer to. In names and notes the source's numbering stands.

T1: NKp46 mutant Supp8 (human, UniProt O76036 22-304)
T1 construct: Expressed in transfected HEK293T cells; also called supplementary mutant Supp8
T1 chain: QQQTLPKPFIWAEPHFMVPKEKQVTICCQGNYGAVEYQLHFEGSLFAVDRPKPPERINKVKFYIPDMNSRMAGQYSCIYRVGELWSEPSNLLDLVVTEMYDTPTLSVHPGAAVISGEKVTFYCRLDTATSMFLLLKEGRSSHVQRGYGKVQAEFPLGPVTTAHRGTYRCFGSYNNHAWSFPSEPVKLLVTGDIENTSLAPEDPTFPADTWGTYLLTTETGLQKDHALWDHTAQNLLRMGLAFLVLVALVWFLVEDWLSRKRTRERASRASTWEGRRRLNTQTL

T2: NKp46 mutant 19 (human, UniProt O76036 22-304)
T2 construct: Expressed in transfected HEK293T cells
T2 chain: T1 chain with A111P, A112E, I114A, S115A

B1: NKp46-1 (antibody, V domains shown)
VH: QVQLQQSGPELVKPGASVKMSCKASGYTFTDYVINWGKQRSGQGLEWIGEIYPGSGTNYYNEKFKAKATLTADKSSNIAYMQLSSLTSEDSAVYFCARRGRYGLYAMDYWGQGTSVTVSS
VL: DIQMTQTTSSLSASLGDRVTISCRASQDISNYLNWYQQKPDGTVKLLIYYTSRLHSGVPSRFSGSGSGTDYSLTINNLEQEDIATYFCQQGNTRPWTFGGGTKLEIK
notes: also called Antibody NKp46-1; parental human IgG1 chimeric antibody NKp46-1
B2: NKp46-9 (antibody, V domains shown)
VH: DVQLQESGPGLVKPSQSLSLTCTVTGYSITSDYAWNWIRQFPGNKLEWMGYITYSGSTNYNPSLKSRISITRDTSKNQFFLQLNSVTTEDTATYYCARCWDYALYAMDCWGQGTSVTVSS
VL: DIQMTQSPASLSASVGETVTITCRTSENIYSYLAWCQQKQGKSPQLLVYNAKTLAEGVPSRFSGSGSGTHFSLKINSLQPEDFGIYYCQHHYDTPLTFGAGTKLELK
notes: not in the list MOLECULES as an antibody; also called antibody NKp46-9; monoclonal antibody NKp46-9
B3: CD19-F1-NKp46-3 (bispecific antibody)
chain: DIQLTQSPASLAVSLGQRATISCKASQSVDYDGDSYLNWYQQIPGQPPKLLIYDASNLVSGIPPRFSGSGSGTDFTLNIHPVEKVDAATYHCQQSTEDPWTFGGGTKLEIKGGGGSGGGGSGGGGSQVQLQQSGAELVRPGSSVKISCKASGYAFSSYWMNWVKQRPGQGLEWIGQIWPGDGDTNYNGKFKGKATLTADESSSTAYMQLSSLASEDSAVYFCARRETTTVGRYYYAMDYWGQGTTVTVSSGGGSSAPELLGGPSVFLFPPKPKDTLMISRTPEVTCVVVDVSHEDPEVKFNWYVDGVEVHNAKTKPREEQYNSTYRVVSVLTVLHQDWLNGKEYKCKVSNKALPAPIEKTISKAKGQPREPQVYTKPPSREEMTKNQVSLSCLVKGFYPSDIAVEWESNGQPENNYKTTVPVLDSDGSFRLASYLTVDKSRWQQGNVFSCSVMHEALHNHYTQKSLSLSPGSTGSEVQLQQSGPELVKPGASVKISCKTSGYTFTEYTMHWVKQSHGKSLEWIGGISPNIGGTSYNQKFKGKATLTVDKSSSTAYMELRSLTSEDSAVYYCARRGGSFDYWGQGTTLTVSSVEGGSGGSGGSGGSGGVDDIVMTQSPATLSVTPGDRVSLSCRASQSISDYLHWYQQKSHESPRLLIKYASQSISGIPSRFSGSGSGSDFTLSINSVEPEDVGVYYCQNGHSFPLTFGAGTKLELK
notes: Single chain F1 format; also called bi-specific antibody NKp46-3 (F1)
B4: CD19-F1-NKp46-2 (bispecific antibody)
chain: DIQLTQSPASLAVSLGQRATISCKASQSVDYDGDSYLNWYQQIPGQPPKLLIYDASNLVSGIPPRFSGSGSGTDFTLNIHPVEKVDAATYHCQQSTEDPWTFGGGTKLEIKGGGGSGGGGSGGGGSQVQLQQSGAELVRPGSSVKISCKASGYAFSSYWMNWVKQRPGQGLEWIGQIWPGDGDTNYNGKFKGKATLTADESSSTAYMQLSSLASEDSAVYFCARRETTTVGRYYYAMDYWGQGTTVTVSSGGGSSAPELLGGPSVFLFPPKPKDTLMISRTPEVTCVVVDVSHEDPEVKFNWYVDGVEVHNAKTKPREEQYNSTYRVVSVLTVLHQDWLNGKEYKCKVSNKALPAPIEKTISKAKGQPREPQVYTKPPSREEMTKNQVSLSCLVKGFYPSDIAVEWESNGQPENNYKTTVPVLDSDGSFRLASYLTVDKSRWQQGNVFSCSVMHEALHNHYTQKSLSLSPGSTGSEVQLQESGPGLVKPSQSLSLTCTVTGYSITSDYAWNWIRQFPGNKLEWMGYITYSGSTSYNPSLESRISITRDTSTNQFFLQLNSVTTEDTATYYCARGGYYGSSWGVFAYWGQGTLVTVSAVEGGSGGSGGSGGSGGVDDIQMTQSPASLSASVGETVTITCRVSENIYSYLAWYQQKQGKSPQLLVYNAKTLAEGVPSRFSGSGSGTQFSLKINSLQPEDFGSYYCQHHYGTPWTFGGGTKLEIK
notes: Single chain F1 format; also called bi-specific antibody NKp46-2 (F1)
B5: CD19-F9A-NKp46-3 (bispecific antibody, human IgG1, kappa)
chain 1: not shown
chain 2: not shown
chain 3: DIVMTQSPATLSVTPGDRVSLSCRASQSISDYLHWYQQKSHESPRLLIKYASQSISGIPSRFSGSGSGSDFTLSINSVEPEDVGVYYCQNGHSFPLTFGAGTKLELKASTKGPSVFPLAPSSKSTSGGTAALGCLVKDYFPEPVTVSWNSGALTSGVHTFPAVLQSSGLYSLSSVVTVPSSSLGTQTYICNVNHKPSNTKVDKRVEPKSCDKTH
notes: Heterotrimer with monomeric Fc (tandem CH3, N297S) and wild-type hinge cysteines
B6: CD19-F4-NKp46-3 (bispecific antibody)
chain: DIQLTQSPASLAVSLGQRATISCKASQSVDYDGDSYLNWYQQIPGQPPKLLIYDASNLVSGIPPRFSGSGSGTDFTLNIHPVEKVDAATYHCQQSTEDPWTFGGGTKLEIKGGGGSGGGGSGGGGSQVQLQQSGAELVRPGSSVKISCKASGYAFSSYWMNWVKQRPGQGLEWIGQIWPGDGDTNYNGKFKGKATLTADESSSTAYMQLSSLASEDSAVYFCARRETTTVGRYYYAMDYWGQGTTVTVSSGGGSSAPELLGGPSVFLFPPKPKDTLMISRTPEVTCVVVDVSHEDPEVKFNWYVDGVEVHNAKTKPREEQYSSTYRVVSVLTVLHQDWLNGKEYKCKVSNKALPAPIEKTISKAKGQPREPQVYTLPPSREEMTKNQVSLTCLVKGFYPSDIAVEWESNGQPENNYKTTPPVLDSDGSFFLYSKLTVDKSRWQQGNVFSCSVMHEALHNHYTQKSLSLSPGGGGGSGGGGSGGGGSGQPREPQVYTLPPSREEMTKNQVSLTCLVKGFYPSDIAVEWESNGQPENNYKTTPPVLDSDGSFFLYSKLTVDKSRWQQGNVFSCSVMHEALHNHYTQKSLSLSPGSTGSEVQLQQSGPELVKPGASVKISCKTSGYTFTEYTMHWVKQSHGKSLEWIGGISPNIGGTSYNQKFKGKATLTVDKSSSTAYMELRSLTSEDSAVYYCARRGGSFDYWGQGTTLTVSSVEGGSGGSGGSGGSGGVDDIVMTQSPATLSVTPGDRVSLSCRASQSISDYLHWYQQKSHESPRLLIKYASQSISGIPSRFSGSGSGSDFTLSINSVEPEDVGVYYCQNGHSFPLTFGAGTKLELK
notes: Single chain with tandem CH3 and N297S
B7: CD19-F1-NKp46-4 (bispecific antibody)
chain: DIQLTQSPASLAVSLGQRATISCKASQSVDYDGDSYLNWYQQIPGQPPKLLIYDASNLVSGIPPRFSGSGSGTDFTLNIHPVEKVDAATYHCQQSTEDPWTFGGGTKLEIKGGGGSGGGGSGGGGSQVQLQQSGAELVRPGSSVKISCKASGYAFSSYWMNWVKQRPGQGLEWIGQIWPGDGDTNYNGKFKGKATLTADESSSTAYMQLSSLASEDSAVYFCARRETTTVGRYYYAMDYWGQGTTVTVSSGGGSSAPELLGGPSVFLFPPKPKDTLMISRTPEVTCVVVDVSHEDPEVKFNWYVDGVEVHNAKTKPREEQYNSTYRVVSVLTVLHQDWLNGKEYKCKVSNKALPAPIEKTISKAKGQPREPQVYTKPPSREEMTKNQVSLSCLVKGFYPSDIAVEWESNGQPENNYKTTVPVLDSDGSFRLASYLTVDKSRWQQGNVFSCSVMHEALHNHYTQKSLSLSPGSTGSQVQLQQSAVELARPGASVKMSCKASGYTFTSFTMHWVKQRPGQGLEWIGYINPSSGYTEYNQKFKDKTTLTADKSSSTAYMQLDSLTSDDSAVYYCVRGSSRGFDYWGQGTLVTVSAVEGGSGGSGGSGGSGGVDDIQMIQSPASLSVSVGETVTITCRASENIYSNLAWFQQKQGKSPQLLVYAATNLADGVPSRFSGSGSGTQYSLKINSLQSEDFGIYYCQHFWGTPRTFGGGTKLEIK
notes: Single chain F1 format

Target: T1, NKp46 mutant Supp8
Assay: flow cytometry on HEK293T cells transfected with NKp46 mutant Supp8 (P132A, E133A; printed 'Mutant S8'), antibody titrated 0.001-1 ug/ml

Binder	binding result
B1	binds
B2	binds

Target: T3, Human NKp46 recombinant proteins (human, UniProt O76036 22-258)
T3 construct: also called recombinant human NKp46 proteins
Assay: SPR, bispecific captured on Protein-A chip, human NKp46 injected, 1:1 kinetic model
Procedure: SPR measurements were performed on a Biacore T100 apparatus (Biacore GE Healthcare) at 25° C. In all Biacore experiments HBS-EP+(Biacore GE Healthcare) and NaOH 10 mM served as running buffer and regeneration buffer respectively. Sensorgrams were analyzed with Biacore T100 Evaluation software. Protein-A was purchase from (GE Healthcare). Human NKp46 recombinant proteins were cloned, produced and purified at Innate Pharma.
Protein-A proteins were immobilized covalently to carboxyl groups in the dextran layer on a Sensor Chip CM5. The chip surface was activated with EDC/NHS (N-ethyl-N′-(3-dimethylaminopropyl) carbodiimidehydrochloride and N-hydroxysuccinimide (Biacore GE Healthcare)). Protein-A was diluted to 10 μg/ml in coupling buffer (10 mM acetate, pH 5.6) and injected until the appropriate immobilization level was reached (i.e. 2000 RU). Deactivation of the remaining activated groups was performed using 100 mM ethanolamine pH 8 (Biacore GE Healthcare).
Monovalent affinity study was done following a regular Capture-Kinetic protocol recommended by the manufacturer (Biacore GE Healthcare kinetic wizard). Seven serial dilutions of human NKp46 recombinant proteins, ranging from 6.25 to 400 nM were sequentially injected over the captured Bi-Specific antibodies and allowed to dissociate for 10 min before regeneration. The entire sensorgram sets were fitted using the 1:1 kinetic binding model.

Binder	Kd [nM]	koff [s⁻¹]	kon [M⁻¹ s⁻¹]
B3	9.14	0.000644	70500
B4	8.93	0.00145	162000
B5	32	0.00669	207000
B6	30	0.011	368000
B7	4.85	0.000653	135000

Target: T2, NKp46 mutant 19
Assay: flow cytometry on HEK293T cells transfected with NKp46 mutant 19 (I135A, S136A), antibody titrated 0.001-1 ug/ml

Binder	binding result
B1	binds
B2	binds

Target: T4, human FcRn (Example 10) (human, UniProt P55899 24-297; P61769 21-119, limits assumed)
T4 construct: Construct not described; Beta-2-microglobulin is not mentioned; also called recombinant FcRn proteins
T4 sequence (P55899 24-297 limits assumed, form in doubt, chain 1 of 2): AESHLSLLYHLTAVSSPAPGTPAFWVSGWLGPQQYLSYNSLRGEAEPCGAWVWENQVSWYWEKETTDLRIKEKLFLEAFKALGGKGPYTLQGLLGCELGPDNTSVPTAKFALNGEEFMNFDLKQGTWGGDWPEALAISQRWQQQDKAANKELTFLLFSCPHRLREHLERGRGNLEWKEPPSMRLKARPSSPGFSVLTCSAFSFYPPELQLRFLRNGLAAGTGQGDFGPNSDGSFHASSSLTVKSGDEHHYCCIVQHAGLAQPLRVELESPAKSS
T4 sequence (P61769 21-119 limits assumed, form in doubt, chain 2 of 2): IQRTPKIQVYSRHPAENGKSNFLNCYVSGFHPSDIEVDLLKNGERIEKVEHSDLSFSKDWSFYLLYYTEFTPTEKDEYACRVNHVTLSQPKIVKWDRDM
Assay: SPR, FcRn immobilized on CM5, Steady State

Binder	Kd [nM]
B5	858
B6	712
